In patent US20200087363A1 (IMMATICS BIOTECHNOLOGIES, published 2020):

The binders below were run against T1, HLA-B*44:05 (human) (assay: UV peptide exchange, anti-b2m ELISA).
T1 construct: also called peptide-receptive MHC class I molecule
Procedure: Only peptide candidates that can effectively bind and stabilize the peptide-receptive MHC molecules prevent dissociation of the MHC complexes. To determine the yield of the exchange reaction, an ELISA was performed based on the detection of the light chain (β2m) of stabilized MHC complexes. The assay was performed as generally described in Rodenko et al. (Rodenko et al., 2006)
96 well MAXISorp plates (NUNC) were coated over night with 2 ug/ml streptavidin in PBS at room temperature, washed 4× and blocked for 1 h at 37° C. in 2% BSA containing blocking buffer. […] Peptide-MHC monomers of the UV-exchange reaction were diluted 100-fold in blocking buffer. Samples were incubated for 1 h at 37° C., washed four times, incubated with 2 ug/ml HRP conjugated anti-β2m for 1 h at 37° C., washed again and detected with TMB solution that is stopped with […]. Absorption was measured at 450 nm.

Binder | peptide exchange yield
EEHIFSAF | 20 to 50%
YERPTLVEL | 50 to 75%
EELHAALSEW | > 75%
EEEVFSGMKL | > 75%
REEEANVVL | 50 to 75%
EEIFAHLGL | 50 to 75%
GETQQHIQL | 50 to 75%
LEMLDAHRL | 50 to 75%
MEHSDENIQFW | 20 to 50%
EVEVGDRTDW | 20 to 50%
SEDPEKYYL | 50 to 75%
DEDLFHKL | 20 to 50%
RELRPLFDRQW | 50 to 75%
KEAFGPQAL | > 75%
TEGDVLNYIF | 50 to 75%
TEEITEGVW | > 75%
MEILWKTLT | > 75%
TEQALRLSV | > 75%
MEGAALLKIF | 50 to 75%
LEEPMPFFY | 10 to 20%
MEIEGAGNFL | > 75%
AGSPVMRKW | 20 to 50%
HEVAQDDHL | 20 to 50%
REILHAQTL | 50 to 75%
SEASVYLFRF | 50 to 75%
WEVEVGDRTDW | 50 to 75%
EEHSSKLQTSL | > 75%

Binder | peptide exchange yield
EEFLRPRSL | 20 to 50%
SEDTIHTHL | 50 to 75%
LEIMTNLVTL | > 75%
LEALLSDLF | 50 to 75%
RENPGMFSW | 50 to 75%
KEMQVTISQQL | > 75%
TELEVKIRDW | > 75%
SEHSLEGQKF | 50 to 75%
MEIKGTVTEF | 50 to 75%
KELSVFKKF | 50 to 75%
NEAGEVSKHF | 50 to 75%
SEFLLRIF | 20 to 50%
AEHDMKSVL | 50 to 75%
REAEEKEAQL | 50 to 75%
SEAKEIKSQL | 50 to 75%
DENDAGNLITF | 50 to 75%
ALNGDIYVW | > 75%
AEGEPPPALAW | 50 to 75%
RELPLVLLA | 20 to 50%
AEGEPPPAL | 50 to 75%
NEILTIHF | 20 to 50%
EEQLLQKVM | > 75%
TEANVQALF | > 75%
LEGGGRGGEF | 20 to 50%
SVNPIIYGF | 20 to 50%
AELPENLKALF | 50 to 75%
AEFVPKADLL | 50 to 75%
